Assay results as given in patent publication US20210261606A1 (JSR, published 2021).

B1: mutant VHH antibody 2bS13-97H (VHH)
VHH: QVQLVESGGGLVQAGGSLRLSCAASGISFAINNVAWYRQAPGKQRDLVALIDKYDTGNIADSVKGRFSISRDNAKNTAYLQMNSLKPEDTAVYYCNHLGTWIRAGPYWGQGTQVTVSS
B2: mutant VHH antibody 2bS13-102H (VHH)
VHH: QVQLVESGGGLVQAGGSLRLSCAASGISFAINNVAWYRQAPGKQRDLVALIDKYDTGNIADSVKGRFSISRDNAKNTAYLQMNSLKPEDTAVYYCNALGTWHRAGPYWGQGTQVTVSS
notes: also called 2b513-102H
B3: mutant VHH antibody 2bS13-100H (VHH)
VHH: QVQLVESGGGLVQAGGSLRLSCAASGISFAINNVAWYRQAPGKQRDLVALIDKYDTGNIADSVKGRFSISRDNAKNTAYLQMNSLKPEDTAVYYCNALGHWIRAGPYWGQGTQVTVSS
notes: also called 2bS13-100H/PB (as ligand on the carrier)

Each binder was assayed against T1, trastuzumab Fab (assay: Biacore SPR, trastuzumab Fab immobilized, VHH as analyte, pH 7.4).
T1 construct: Made by papain digestion of trastuzumab (Herceptin); also called Fab of trastuzumab (Herceptin)
Experimental: Those VHH antibodies were dispersed in HBS-EP (10 mM Hepes, 150 mM NaCl, 3 mM EDTA, and 0.005% Tween-20) to produce 12.5 to 150 nM VHH antibody solutions. The trastuzumab Fab prepared in Test Example 1 was immobilized on a Biacore sensor chip, and each VHH antibody solution was applied thereto. The measurements were performed under neutral conditions (pH 7.4). Curve fitting utilizing binding model was applied to association and dissociation behaviors, whereby evaluating the association rate constant (Kon), the dissociation rate constant (Koff), and the affinity (KD). Furthermore, this sensor chip was washed with an acidic eluent (10 mM Glycine-HCl+0.5M NaCl, pH 2.0) to measure a signal. From the obtained signal shape, the elution behavior of Ig by the acid was examined.
B1 showed a Kd of 0.205 nM, a koff of 0.004 s⁻¹ and a kon of 1.97e+07 M⁻¹ s⁻¹.
In the case of B2, the Kd is reported as 1.44 nM, the koff is reported as 0.0227 s⁻¹ and the kon is reported as 1.58e+07 M⁻¹ s⁻¹.
B3 was tested, and the Kd was 0.376 nM, the koff was 0.0078 s⁻¹ and the kon was 2.08e+07 M⁻¹ s⁻¹.
